Experimental data from patent US20250368734A1 (ANTENGENE BIOLOGICS, published 2025).

What was measured:
mouse GPRC5D = target: T1, mouse GPRC5D (mouse, UniProt Q9JIL6 1-344); assay: FACS, HEK293T-mGPRC5D cells
T1 construct: whole, on cells; HEK293T-mGPRC5D cells; also called mGPRC5D; murine GPRC5D
T1 sequence (looked up): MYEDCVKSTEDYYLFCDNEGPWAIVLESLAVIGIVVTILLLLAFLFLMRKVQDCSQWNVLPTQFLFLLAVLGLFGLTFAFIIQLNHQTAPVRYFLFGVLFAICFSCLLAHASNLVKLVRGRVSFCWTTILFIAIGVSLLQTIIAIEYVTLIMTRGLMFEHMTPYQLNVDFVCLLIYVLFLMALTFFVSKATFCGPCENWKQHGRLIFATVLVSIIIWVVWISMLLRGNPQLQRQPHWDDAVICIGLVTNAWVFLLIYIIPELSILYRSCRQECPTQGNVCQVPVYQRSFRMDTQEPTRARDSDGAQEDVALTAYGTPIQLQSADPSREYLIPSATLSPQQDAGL
Source text: (§1) The subcloning plates were screened by Mirrorball assay and the subclones with good binding ability were expanded to 24-wells for confirmation tests. The specificity and cross-reactivity of these subclones were confirmed with FACS analysis. Briefly, parental HEK293T, HEK293T cells stably over-expressing human GPRC5D protein (i.e., HEK293T-hGPRC5D), HEK293T cells stably over-expressing cynomolgus monkey GPRC5D protein (i.e., HEK293T-cynoGPRC5D), HEK293T cells stably over-expressing mouse GPRC5D protein (i.e., HEK293T-mGPRC5D), and OPM2 cells were incubated with antibodies produced by each subclone, respectively. Fluorescent dye-conjugated secondary antibody was used to detect the binding of the primary antibody with the cells. Median fluorescence intensity (MFI) was measured by FACS analysis,
(§2) As a result, 21 antibodies were discovered with unique sequences showing positive binding with HEK293T-hGPRC5D and OPM2 cells. Among which, some clones could also bind with HEK293T-cynoGPRC5D and/or HEK293T-mGPRC5D. […] ATG596 was a positive human IgG1 control antibody which comprises a VH region having an amino acid sequence as set forth in SEQ ID NO: 199, and a VL region having an amino acid sequence as set forth in SEQ ID NO: 200.

cynomolgus monkey GPRC5D = target: T2, cynomolgus monkey GPRC5D (cynomolgus monkey); assay: FACS, HEK293T-cynoGPRC5D cells
T2 construct: whole, on cells; HEK293T-cynoGPRC5D cells; also called cynoGPRC5D
Source text: as §1, §2

human GPRC5D [1] = target: T3, human GPRC5D (human, UniProt Q9NZD1 1-345); assay: FACS, HEK293T-hGPRC5D cells
T3 construct: whole, on cells; also called hGPRC5D; G-protein coupled receptor family C group 5 member D
Source text: as §1, §2

human GPRC5D [2] = target: T3, human GPRC5D; assay: FACS, OPM-2 cells
Source text: as §1, §2

human GPRC5D [3] = target: T3, human GPRC5D; assay: cell-based or functional assay

T3 sequence (Q9NZD1 whole entry): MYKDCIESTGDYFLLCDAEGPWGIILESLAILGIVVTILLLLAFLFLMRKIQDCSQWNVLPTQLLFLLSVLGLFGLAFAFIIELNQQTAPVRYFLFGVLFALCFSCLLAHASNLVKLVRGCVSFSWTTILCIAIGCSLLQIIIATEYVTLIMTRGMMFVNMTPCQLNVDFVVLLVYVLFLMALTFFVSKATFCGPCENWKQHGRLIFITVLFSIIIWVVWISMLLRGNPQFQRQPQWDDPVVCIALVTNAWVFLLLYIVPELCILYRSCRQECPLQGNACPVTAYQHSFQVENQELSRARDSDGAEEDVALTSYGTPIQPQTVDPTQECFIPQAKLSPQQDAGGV

B1: 101B3G3 (antibody, V domains shown)
VH: EVQLQQSGPELVKPGASMKISCKASGYSFTGYTMNWVKQSHGKNLEWIGLINPYNGGTRYNQKFKDKATLTVDKSSSTAYMELLSLTSEDSAVYYCARWLLRYAMDYWGQGTSVTVSS
VL: DIVMTQSQKFMSTSVGDRVSITCKASQNVGNAVAWYQQKPGHSPKLLISSASNRKNGVPDRFTGSGSGTDFTLTVSNMQSEDLADYFCQQYSDSSWTFGGGTKLEIK
notes: Mouse monoclonal antibody from hybridoma subclone
How did the “% Positive” value (mouse GPRC5D) turn out when B1 was run?
The value was 85.2%.

What about the MFI (mouse GPRC5D) of the same binder?
Its MFI is 1480.

What about the “% Positive” value (cynomolgus monkey GPRC5D) of the same binder?
The value was 57.4%.

And the MFI (cynomolgus monkey GPRC5D)?
Its MFI is 585.

And the “% Positive” value (human GPRC5D [1])?
Its value is 97.9%.

And the MFI (human GPRC5D [1])?
Its MFI is 27100.

And the “% Positive” value (human GPRC5D [2])?
The value was 99.6%.

What about the MFI (human GPRC5D [2]) of the same binder?
The MFI was 1370.

B2: Bis-83A9B8 (bispecific antibody)
chain 1: EVQLQQSGPELVKPGASVKMSCKASGYTFSNYVIHWVKQKPGQGLEWIGYFNPYNDGSKYNEKFKGKATLTSDKSSSTAYMELSSLTSEDSAVYYCARGGVRRYFDVWGAGTTVTVSS
chain 2: GGGGSGGGGSGGGGSEVQLVESGGGLVQPGRSLRLSCAASGFTFDNYAMHWVRQAPGKGLEWVSGISWNSGSIGYADSVKGRFTISRDNAKNSLYLQMNSLRAEDTALYYCAKDSRGYGDYSRGGAYWGQGTLVTVSSEIVMTQSPATLSVSPGERATLSCRASQSVSSNLAWYQQKPGQAPRLLIYGASTRATGIPARFSGSGSGTEFTLTISSLQSEDFAVYYCQQYNNWPWTFGQGTKVEIK
chain 3: DIQMTQSPSSLSASLGERVSLTCRASQDIGDNLNWLQQEPDGTIKRLIYATFSLDSGVPKRFSGSRSGSVYSLTISRLESEDFVDYFCLHYASFPYTFGGGTKLEIK
What does the source list for B2?
EC50 (human GPRC5D [3]): 1.9 nM; Top killing % (human GPRC5D [3]): 66.9%

B3: 98A3A8 (antibody, V domains shown)
VH: EVQLQQSGPELVKPGASVKMSCKASGYTFTYYVTHWVRQKPGQGLEWIGYINPYNDGTMFNEKFKGKATLTSDKSSSTAYMEFSSLTSEDSAVFYCARGGVRRYFDVWGAGTTVTVSS
VL: DIQMTQSPSSLSASLGERVSLTCRASQDIGSNLNWLQQKPDGTIKRLIYATSSLDSGVPKRFSGSRSGSDYSLTINSLESEDFVDYYCLQYASFPYTFGGGTKLEIK
notes: as for B1
What does the source list for B3?
% Positive (mouse GPRC5D): 89.4%; MFI (mouse GPRC5D): 566; % Positive (cynomolgus monkey GPRC5D): 95.3%; MFI (cynomolgus monkey GPRC5D): 2070; % Positive (human GPRC5D [1]): 93.2%; MFI (human GPRC5D [1]): 2070; % Positive (human GPRC5D [2]): 98.7%; MFI (human GPRC5D [2]): 962

B4: Bis-98A3A8 (bispecific antibody)
chain 1: EVQLQQSGPELVKPGASVKMSCKASGYTFTYYVTHWVRQKPGQGLEWIGYINPYNDGTMFNEKFKGKATLTSDKSSSTAYMEFSSLTSEDSAVFYCARGGVRRYFDVWGAGTTVTVSS
chain 2: GGGGSGGGGSGGGGSEVQLVESGGGLVQPGRSLRLSCAASGFTFDNYAMHWVRQAPGKGLEWVSGISWNSGSIGYADSVKGRFTISRDNAKNSLYLQMNSLRAEDTALYYCAKDSRGYGDYSRGGAYWGQGTLVTVSSEIVMTQSPATLSVSPGERATLSCRASQSVSSNLAWYQQKPGQAPRLLIYGASTRATGIPARFSGSGSGTEFTLTISSLQSEDFAVYYCQQYNNWPWTFGQGTKVEIK
chain 3: DIQMTQSPSSLSASLGERVSLTCRASQDIGSNLNWLQQKPDGTIKRLIYATSSLDSGVPKRFSGSRSGSDYSLTINSLESEDFVDYYCLQYASFPYTFGGGTKLEIK
How did the “EC50” value (human GPRC5D [3]) turn out when B4 was run?
Its value is 2.95 nM.

What about the Top killing % (human GPRC5D [3]) of the same binder?
The Top killing % was 64.4%.

B5: Bis-96C9E7 (bispecific antibody)
chain 1: EVQLQQSGPELVKPGASVKMSCKASGYTFTYYILHWVKQKPGQGLEWIGYFNPYNDGNKFNERFRGKATLTSDKSSSTAYMELNSLTSEDSAVYFCARGGVRRYFDVWGAGTTVTVSS
chain 2: GGGGSGGGGSGGGGSEVQLVESGGGLVQPGRSLRLSCAASGFTFDNYAMHWVRQAPGKGLEWVSGISWNSGSIGYADSVKGRFTISRDNAKNSLYLQMNSLRAEDTALYYCAKDSRGYGDYSRGGAYWGQGTLVTVSSEIVMTQSPATLSVSPGERATLSCRASQSVSSNLAWYQQKPGQAPRLLIYGASTRATGIPARFSGSGSGTEFTLTISSLQSEDFAVYYCQQYNNWPWTFGQGTKVEIK
chain 3: DIQMTQSPSSLSASLGERVSLTCRASQDIGSNLNWLQQEPDGTIKRLISATFSLDSGVPKRFSGSRSGSDYSLTISSLESEDFVNYYCLQYASFPYTFGGGTKLEIK
What does the source list for B5?
EC50 (human GPRC5D [3]): 2.34 nM; Top killing % (human GPRC5D [3]): 66.2%

B6: Bis-108C4C12 (bispecific antibody)
chain 1: EVQLQQSGPELVKPGASVKMSCKASGYTFTSYVIHWVKQKTGQGLEWIGYFNPYNDGTKYNEEFKGKATLTSDKSSNTAYMELNSLTSDDSAVYFCARGGVRRYFDVWGAGTTVTVSS
chain 2: GGGGSGGGGSGGGGSEVQLVESGGGLVQPGRSLRLSCAASGFTFDNYAMHWVRQAPGKGLEWVSGISWNSGSIGYADSVKGRFTISRDNAKNSLYLQMNSLRAEDTALYYCAKDSRGYGDYSRGGAYWGQGTLVTVSSEIVMTQSPATLSVSPGERATLSCRASQSVSSNLAWYQQKPGQAPRLLIYGASTRATGIPARFSGSGSGTEFTLTISSLQSEDFAVYYCQQYNNWPWTFGQGTKVEIK
chain 3: DIQMTQSPSSLSASLGERVSLTCRASQDIGSNLNWLQQEPDGTIKRLIYATFGLDSGVPKRFSGSRSGSDYSLTISSLESEDFVDYYCQQYASFPYTFGGGTKLEIK
How did the “EC50” value (human GPRC5D [3]) turn out when B6 was run?
The value was 1.44 nM.

What about the Top killing % (human GPRC5D [3]) of the same binder?
Its Top killing % is 67.9%.

B7: Bis-26E2H6 (bispecific antibody)
chain 1: EVQLVESGGDLVKPGGSLKLSCAASGFTFSSYGMSWVRQTPDKRLEWVATISSGGSYTYYPDSVKGRFTISRDNAKNTLYLQMSSLKSEDTAMYYCARHATDYWGQGTTLTVSS
chain 2: GGGGSGGGGSGGGGSEVQLVESGGGLVQPGRSLRLSCAASGFTFDNYAMHWVRQAPGKGLEWVSGISWNSGSIGYADSVKGRFTISRDNAKNSLYLQMNSLRAEDTALYYCAKDSRGYGDYSRGGAYWGQGTLVTVSSEIVMTQSPATLSVSPGERATLSCRASQSVSSNLAWYQQKPGQAPRLLIYGASTRATGIPARFSGSGSGTEFTLTISSLQSEDFAVYYCQQYNNWPWTFGQGTKVEIK
chain 3: QIVLTQSPAIMSASPGEKVTMTCSASSSVSYMHWYQQKSGTSPKRWIYDTSKLASGVPARFSGSGSGTSYSLTISSMEAEDAATYYCQQWSSNPLTFGAGTKLELK
Which results are given for B7?
EC50 (human GPRC5D [3]): 30.5 nM; Top killing % (human GPRC5D [3]): 79.1%

B8: 108C4C12 (antibody, V domains shown)
VH: EVQLQQSGPELVKPGASVKMSCKASGYTFTSYVIHWVKQKTGQGLEWIGYFNPYNDGTKYNEEFKGKATLTSDKSSNTAYMELNSLTSDDSAVYFCARGGVRRYFDVWGAGTTVTVSS
VL: DIQMTQSPSSLSASLGERVSLTCRASQDIGSNLNWLQQEPDGTIKRLIYATFGLDSGVPKRFSGSRSGSDYSLTISSLESEDFVDYYCQQYASFPYTFGGGTKLEIK
notes: as for B1
Which “% Positive” value (mouse GPRC5D) does the source give for B8 here?
Its value is 65.7%.

And the MFI (mouse GPRC5D)?
The MFI was 274.

And the “% Positive” value (cynomolgus monkey GPRC5D)?
Its value is 59.1%.

What about the MFI (cynomolgus monkey GPRC5D) of the same binder?
The MFI was 355.

And the “% Positive” value (human GPRC5D [1])?
The value was 96.6%.

What about the MFI (human GPRC5D [1]) of the same binder?
The MFI was 5010.

What about the “% Positive” value (human GPRC5D [2]) of the same binder?
Its value is 98.3%.

And the MFI (human GPRC5D [2])?
Its MFI is 878.

B9: Bis-15D6G2 (bispecific antibody)
chain 1: EVQLVESGGDLVKPGGYLRLSCAASGFTFSSHGMSWVRQTPDKRLEWVATISSGGRNTYYPDSVKGRFTISRDNAKNILYLQMSSLKSEDTAMFYCTRHSGDAMDYWGQGTSVTVSS
chain 2: GGGGSGGGGSGGGGSEVQLVESGGGLVQPGRSLRLSCAASGFTFDNYAMHWVRQAPGKGLEWVSGISWNSGSIGYADSVKGRFTISRDNAKNSLYLQMNSLRAEDTALYYCAKDSRGYGDYSRGGAYWGQGTLVTVSSEIVMTQSPATLSVSPGERATLSCRASQSVSSNLAWYQQKPGQAPRLLIYGASTRATGIPARFSGSGSGTEFTLTISSLQSEDFAVYYCQQYNNWPWTFGQGTKVEIK
chain 3: DILLTQSPAILSVSPGERVSFSCRASQSIGTNIHWYQQRTNGSPRLLIKYASESISGIPSRFSGSGSGTDFTLSINSVESEDIADYYCQQSKSWPTFGGGTKLEIK
Which “EC50” value (human GPRC5D [3]) does the source give for B9 here?
The value was 6.69 nM.

What about the Top killing % (human GPRC5D [3]) of the same binder?
Its Top killing % is 45.9%.

B10: Bis-110B4H5 (bispecific antibody)
chain 1: EVQLQQSGPELVKPGASVKMSCKASGYTFTFYIMHWVKQKPGQGPEWIGYINPYNDGTKYNAKFKGKATLSSDRSSSTAYMELSSLTSEDSAVYYCARGGVRRYFDVWGAGTPVTVSS
chain 2: GGGGSGGGGSGGGGSEVQLVESGGGLVQPGRSLRLSCAASGFTFDNYAMHWVRQAPGKGLEWVSGISWNSGSIGYADSVKGRFTISRDNAKNSLYLQMNSLRAEDTALYYCAKDSRGYGDYSRGGAYWGQGTLVTVSSEIVMTQSPATLSVSPGERATLSCRASQSVSSNLAWYQQKPGQAPRLLIYGASTRATGIPARFSGSGSGTEFTLTISSLQSEDFAVYYCQQYNNWPWTFGQGTKVEIK
chain 3: DIQMTQSPSSLSASLGERVSLTCRSSQDIGSNLNWLQQEPDGTIKRLIYATFSLDSGVPKRFSGSRSGSHYSLTISSLESEDFVVYYCLQYGSFPYTFGGGTKLEIK
What does the source list for B10?
EC50 (human GPRC5D [3]): 3.62 nM; Top killing % (human GPRC5D [3]): 61.5%
